Results reported in patent US20200399394A1 (published 2020).
Numbering of substitutions follows the chain as printed.

T1: human CD39 (ectonucleoside triphosphate diphosphohydrolase 1) (UniProt P49961 1-510)
T1 chain: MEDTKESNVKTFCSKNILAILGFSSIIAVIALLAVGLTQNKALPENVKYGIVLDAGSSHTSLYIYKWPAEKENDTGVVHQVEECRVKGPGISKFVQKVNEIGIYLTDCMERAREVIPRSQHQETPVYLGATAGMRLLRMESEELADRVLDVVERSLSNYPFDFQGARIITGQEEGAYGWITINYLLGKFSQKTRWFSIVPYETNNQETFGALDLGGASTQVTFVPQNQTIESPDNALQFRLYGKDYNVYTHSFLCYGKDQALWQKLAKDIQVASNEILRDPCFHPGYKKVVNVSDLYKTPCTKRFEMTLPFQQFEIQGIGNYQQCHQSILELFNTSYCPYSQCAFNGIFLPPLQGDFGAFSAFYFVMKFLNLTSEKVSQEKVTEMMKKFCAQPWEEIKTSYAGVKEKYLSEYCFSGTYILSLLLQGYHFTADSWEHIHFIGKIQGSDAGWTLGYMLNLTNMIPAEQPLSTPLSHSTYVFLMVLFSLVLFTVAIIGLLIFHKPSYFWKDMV

B1: SRF367-C (antibody, V domains shown)
VH: QVQLVQSGAEVKKPGSSVKVSCKASGGTFSSEGISWVRQAPGQGLEWMGSILPIFGTANYAQKFQGRVTITADESTSTAYMELSSLRSEDTAVYYCAREAGYYRYRYFDLWGKGTLVTVSS
VL: EIVMTQSPATLSVSPGERATLSCRASQSVSSNLAWYQQKPGQAPRLLIYGASTRATGIPARFSGSGSGTEFTLTISSLQSEDFAVYYCQQHALWPLTFGGGTKVEIKR
B2: SRF365-C (antibody, V domains shown)
VH: B1 VH with S31D, E32K, G33A, K113R
VL: B1 VL
B3: SRF370-C (antibody, V domains shown)
VH: QVQLVQSGAEVKKPGSSVKVSCKASGGTFSTYAIGWVRQAPGQGLEWMGGIIPAFGTANYAQKFQGRVTITADESTSTAYMELSSLRSEDTAVYYCARDPVRRSPFDIWGQGTMVTVSS
VL: EIVLTQSPATLSLSPGERATLSCRASQSVSSYLAWYQQKPGQAPRLLIYDSSNRATGIPARFSGSGSGTDFTLTISSLEPEDFAVYYCQQSFLWPRTFGGGTKVEIKR
B4: SRF360-C (antibody, V domains shown)
VH: EVQLVESGGGLVKPGGSLRLSCAASGFTFSSYRMNWVRQAPGKGLEWVSSISSSSSSIWYADSVKGRFTISRDNAKNSLYLQMNSLRAEDTAVYYCAKGPRYDSSGYRWRYGMDVWGQGTTVTVSS
VL: DIQMTQSPSSLSASVGDRVTITCRASQSISSYLNWYQQKPGKAPKLLIYAASSLQSGVPSRFSGSGSGTDFTLTISSLQPEDFATYYCQQLYVDPPWTFGGGTKVEIKR
B5: SRF365-C (antibody, V domains shown)
VH: B1 VH with S31D, E32K, G33A, K113R
VL: B1 VL
B6: SRF367-C (antibody, V domains shown)
VH: B1 VH
VL: B1 VL
B7: SRF360-C (antibody, V domains shown)
VH: B4 VH
VL: B4 VL

Biological target: T1, human CD39 (ectonucleoside triphosphate …)
Experiment: ForteBio (BLI); IgG, monovalent

| Kd | Binder |
| --- | --- |
| 1570 pM | B1 |
| 556 pM | B2 |
| 2590 pM | B3 |
| 772 pM | B4 |

Biological target: T1, human CD39 (ectonucleoside triphosphate …)
Experiment: MSD equilibrium; Fab

| Kd | Binder |
| --- | --- |
| 51 pM | B5 |
| 240 pM | B6 |
| 44 pM | B7 |
